In general, Kd refers to the concentration at which binding is half-saturated. A high value points to weaker binding. As usually defined, the koff is the rate constant with which the complex falls apart. Low values mean slow dissociation, high ones fast dissociation. By kon is commonly meant a measure of how fast the partners come together. A high value points to fast association. Usually IC50 stands for the concentration needed to halve the response being measured. A high value points to weaker potency in that assay.

Assay [1] addresses T1, human CTLA-4-Fc (Chimerigen) (human, UniProt P16410 36-161; P01857 99-330 = IgG part, limits assumed).
T1 construct: extracellular domain;domain: Fc portion; Bought protein; also called hCTLA-4-Fc; huCTLA-4-Ig
As to the kind of experiment: ELISA towards hCTLA-4-Fc. (In general: In an ELISA, binding on a coated surface is turned into a signal by an enzyme label.)
Target sequence in this assay (P16410 other isoform, or with tags, fused parts or gaps mutant limits assumed): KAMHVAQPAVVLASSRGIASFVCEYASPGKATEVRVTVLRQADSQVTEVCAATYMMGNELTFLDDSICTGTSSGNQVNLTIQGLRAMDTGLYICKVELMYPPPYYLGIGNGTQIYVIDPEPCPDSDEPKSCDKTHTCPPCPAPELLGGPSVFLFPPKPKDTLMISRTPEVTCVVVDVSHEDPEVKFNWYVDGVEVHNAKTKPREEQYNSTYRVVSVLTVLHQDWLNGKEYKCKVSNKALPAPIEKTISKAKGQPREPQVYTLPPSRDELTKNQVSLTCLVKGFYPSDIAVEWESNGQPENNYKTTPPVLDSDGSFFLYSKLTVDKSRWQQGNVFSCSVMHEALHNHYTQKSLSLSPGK

The target of assay [2] is T1, human CTLA-4-Fc (Chimerigen). As to the kind of experiment: competition FACS: 2.5 nM human CTLA-4 Fc pre-incubated with the antagonist, then staining of Raji cells; % inhibition of CTLA-4 Fc binding; blocked ligands B7.1 and B7.2.
Assay [3] shares this target. As to the kind of experiment: SPR-Affinity towards hCTLA-4-Fc.
Target sequence in this assay (P16410 other isoform, or with tags, fused parts or gaps mutant limits assumed): as above
The target is the same in assay [4]. Briefly: competition FACS: HuCTLA4-Ig 10 ug/ml pre-incubated with the antagonist, then staining of P815 cells transfected with human B7.2; blocked ligand B7.2.
The target of assay [5] is T2, mCTLA-4-Fc (R&D Systems) (mouse, UniProt P09793 36-162). Briefly: SPR, Fc fusion captured via anti-human IgG Fc.
T2 sequence (P09793 whole entry, the tested form may be a part): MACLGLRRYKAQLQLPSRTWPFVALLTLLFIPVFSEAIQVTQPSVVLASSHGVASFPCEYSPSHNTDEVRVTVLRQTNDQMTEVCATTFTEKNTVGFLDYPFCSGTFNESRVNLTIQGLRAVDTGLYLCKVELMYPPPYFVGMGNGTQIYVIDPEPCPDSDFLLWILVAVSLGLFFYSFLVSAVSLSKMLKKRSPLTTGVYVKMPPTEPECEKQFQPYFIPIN
Assay [6] deals with T1, human CTLA-4-Fc (Chimerigen). As to the kind of experiment: SPR, Fc fusion captured via anti-human IgG Fc. For orientation: In SPR one partner is held on a chip, and binding of the other changes the refractive index at the surface.
Target sequence in this assay (P16410 other isoform, or with tags, fused parts or gaps mutant limits assumed): as the sequence (P16410 other isoform, or with tags, fused parts or gaps mutant limits assumed) above
For assay [7], the target named is T3, human CTLA-4 on the cell surface (transfected CHO and A431 cells; CD152-expressing cells of human tonsil) (human, UniProt P16410 36-223).
T3 construct: whole, on cells; also called CHO-hCTLA-4; CHO::hCTLA-4
T3 sequence (looked up): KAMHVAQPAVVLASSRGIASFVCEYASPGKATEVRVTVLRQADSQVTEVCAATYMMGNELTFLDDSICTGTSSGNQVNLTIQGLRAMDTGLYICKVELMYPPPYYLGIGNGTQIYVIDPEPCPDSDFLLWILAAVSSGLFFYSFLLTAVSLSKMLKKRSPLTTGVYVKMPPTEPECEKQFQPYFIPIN
As to the kind of experiment: indirect immunoperoxidase staining of cryosections; column Negative Control Antibody [Isotype-matched hNGALwt_58].

Assay [8] concerns the target T1, human CTLA-4-Fc (Chimerigen). Briefly: Affinity-ELISA of the PEGylated monomer towards hCTLA-4-Fc.
Target sequence in this assay (P16410 other isoform, or with tags, fused parts or gaps mutant limits assumed): as the sequence (P16410 other isoform, or with tags, fused parts or gaps mutant limits assumed) above
For assay [9] the target is unchanged. Briefly: SPR-Affinity of the PEGylated monomer towards hCTLA-4-Fc.
Target sequence in this assay (P16410 other isoform, or with tags, fused parts or gaps mutant limits assumed): as the sequence (P16410 other isoform, or with tags, fused parts or gaps mutant limits assumed) above
Assay [10] deals with T2, mCTLA-4-Fc (R&D Systems). Briefly: SPR; KD listed beside Tm.
Assay [11] deals with T1, human CTLA-4-Fc (Chimerigen). As to the kind of experiment: SPR; KD listed beside Tm.
Target sequence in this assay (P16410 other isoform, or with tags, fused parts or gaps mutant limits assumed): as the sequence (P16410 other isoform, or with tags, fused parts or gaps mutant limits assumed) above
The target of assay [12] is T2, mCTLA-4-Fc (R&D Systems). As to the kind of experiment: SPR as in Example 9.
Assay [13] concerns the target T1, human CTLA-4-Fc (Chimerigen). Briefly: SPR as in Example 9.
For assay [14] the target is unchanged. Briefly: SPR-Affinity of the monomer towards hCTLA-4-Fc.
In assay [15] the target is T4, mouse CTLA-4 Fc (Chimerigen) (mouse, UniProt P09793 36-161).
T4 construct: also called muCTLA-4-Ig; muCTLA-4-Fc; not shown: Fc part not described; detected with anti-mouse IgG-phycoerythrin
Briefly: FACS competition: inhibition of 2.5 nM mCTLA-4 Fc binding to Raji cells (B7.1, B7.2).

Assay [16] deals with T1, human CTLA-4-Fc (Chimerigen). As to the kind of experiment: FACS competition: inhibition of 2.5 nM hCTLA-4 Fc binding to Raji cells (B7.1, B7.2).

B1: S140.4-O10-ABD (fusion with the albumin binding domain of streptococcal protein G) (designed binder)
chain: QDSTSDLIPAPPLSKVPLQQNFQDNQFHGKWYVVGLAGNRILRDDQHPMNMYATIYELKEDKSYNVTSVISSHKKCEYTIATFVPGSQPGEFTLGNIKSYGDKTSYLVRVVSTDYNQYAVVFFKLAEDNAEFFAITIYGRTKELASELKENFIRFSKSLGLPENHIVFPVPIDQCIDGSGGAVDANSLAEAKVLANRELDKYGVSDYYKNLINNAKTVEGVKALIDEILAALPSAWSHPQFEK
notes: Original linker of protein G between mutein and ABD; also called Onc I-004
With B1, in assay [1], the ELISA affinities was 3.3 nM. Moreover, the “IC50 (read off the curve)” value in assay [2] is ~4 nM. Further, the Kd in assay [3] amounted to 8.9 nM.

B2: hNGAL mutein S94.7-Q13 (designed binder)
chain: QDSTSDLIPAPPLSKVPLQQNFQDNQFHGKWYVVGLAGNRILRDDQHPMNMYATIYELKEDKSYNVTSVIFPHKKCEYTIATFVPGSQPGEFTLGNIKSYGDKTSYLVRVVSTNYNQHATVFFKLAEDNAEFFAITIYGRTKELASELKENFIRFSKSLGLPENHIVFPVPIDQCIDGSAWSHPQF
notes: also called CTLA-4-Q13
In the case of B2, the “IC50 (read off the curve)” value in assay [4] was ~5 µg/mL. In the assay with mCTLA-4-Fc (R&D Systems) [5], this molecule registered a Kd of 39.5 nM, an off-rate constant (koff) of 0.00017 s⁻¹ and a kon of 4300 M⁻¹ s⁻¹. Also, in assay [6], the Kd turned out to be 11.8 nM, the koff worked out at 7.1e-05 s⁻¹ and the kon is 6000 M⁻¹ s⁻¹.

B3: control lipocalin hNGAL wt58 (other)
chain: QDSTSDLIPAPPLSKVPLQQNFQDNQFHGKWYVVGLAGNAILREDKDPQKMYATIYELKEDKSYNVTSVLFRKKKCDYWIRTFVPGSQPGEFTLGNIKSYPGLTSYLVRVVSTNYNQHAMVFFKKVSQNREYFKITIYGRTKELASELKENFIRFSKSLGLPENHIVFPVPIDQCIDG
notes: also called hNGAL-58; hNGAL58
Consider B3, for which the binding result in assay [7] is “no binding (tested: 40 µg/mL)”.

B4: S140.4-O10 site-directed PEGylated at Cys 87 with 20k PEG (designed binder)
chain: QDSTSDLIPAPPLSKVPLQQNFQDNQFHGKWYVVGLAGNRILRDDQHPMNMYATIYELKEDKSYNVTSVISSHKKCEYTIATFVPGCQPGEFTLGNIKSYGDKTSYLVRVVSTDYNQYAVVFFKLAEDNAEFFAITIYGRTKELASELKENFIRFSKSLGLPENHIVFPVPIDQCIDGSAWSHPQFEK
modifications: chain 1 pos 87: Cys carrying linear 20 kDa PEG-maleimide, written C
notes: also called O10_PEG(20k); S140.4-O10-PEG (20k)
Molecule B4 yielded an ELISA affinities in assay [1] of 3.6 nM. The “IC50 (read off the curve)” value in assay [2] was ~4 nM. In assay [3], this molecule returned a Kd of 11 nM.

B5: S140.4-O10 site-directed PEGylated at Cys 87 with 12k PEG (designed binder)
chain: QDSTSDLIPAPPLSKVPLQQNFQDNQFHGKWYVVGLAGNRILRDDQHPMNMYATIYELKEDKSYNVTSVISSHKKCEYTIATFVPGCQPGEFTLGNIKSYGDKTSYLVRVVSTDYNQYAVVFFKLAEDNAEFFAITIYGRTKELASELKENFIRFSKSLGLPENHIVFPVPIDQCIDGSAWSHPQFEK
modifications: chain 1 pos 87: Cys carrying linear 12k PEG-maleimide on its thiol, written C
notes: also called O10_PEG(12k); O10_S87C PEGylated monomer
In turn, B5 came in with an ELISA affinities in assay [1] of 3.2 nM. Besides, the “ELISA-Affinity PEGylated Monomer” value in assay [8] amounted to 52 nM. In addition, the dissociation constant (Kd) worked out at 26 nM in assay [9] and 20 nM in assay [3].

B6: S140.4-O10 site-directed PEGylated at Cys 87 with 30k PEG (designed binder)
chain: QDSTSDLIPAPPLSKVPLQQNFQDNQFHGKWYVVGLAGNRILRDDQHPMNMYATIYELKEDKSYNVTSVISSHKKCEYTIATFVPGCQPGEFTLGNIKSYGDKTSYLVRVVSTDYNQYAVVFFKLAEDNAEFFAITIYGRTKELASELKENFIRFSKSLGLPENHIVFPVPIDQCIDGSAWSHPQFEK
modifications: chain 1 pos 87: Cys carrying linear 30 kDa PEG-maleimide, written C
notes: also called O10_PEG(30k); S140.4-O10-PEG(30k)
In turn, B6 showed an ELISA affinities in assay [1] of 3 nM.

B7: hNGAL mutein S140.4-O10 (designed binder)
chain: QDSTSDLIPAPPLSKVPLQQNFQDNQFHGKWYVVGLAGNRILRDDQHPMNMYATIYELKEDKSYNVTSVISSHKKCEYTIATFVPGSQPGEFTLGNIKSYGDKTSYLVRVVSTDYNQYAVVFFKLAEDNAEFFAITIYGRTKELASELKENFIRFSKSLGLPENHIVFPVPIDQCIDG
notes: also called Onc I-002
Take B7: the ELISA affinities in assay [1] was found to be 3.8 nM. The “IC50 (read off the curve)” value in assay [2] is ~2 nM. The Kd was 40.8 nM with mCTLA-4-Fc (R&D Systems) [10]; 8.3 nM in [11]; 40.8 nM with mCTLA-4-Fc (R&D Systems) [12]; 8.3 nM in [13]; 3.7 nM in assay [3]. Besides, the dissociation rate constant (koff) with mCTLA-4-Fc (R&D Systems) [12] worked out at 0.00049 s⁻¹; in assay [13] it was 0.000221 s⁻¹. For the same molecule, the kon with mCTLA-4-Fc (R&D Systems) [12] amounted to 11900 M⁻¹ s⁻¹; in [13] it was 15300 M⁻¹ s⁻¹.

B8: hNGAL mutein S140.4-O10 without T7 tag (designed binder)
chain: QDSTSDLIPAPPLSKVPLQQNFQDNQFHGKWYVVGLAGNRILRDDQHPMNMYATIYELKEDKSYNVTSVISSHKKCEYTIATFVPGSQPGEFTLGNIKSYGDKTSYLVRVVSTDYNQYAVVFFKLAEDNAEFFAITIYGRTKELASELKENFIRFSKSLGLPENHIVFPVPIDQCIDG
notes: also called S140.4-O10 (-T7 tag); S140.4-O10(-T7)
As for B8, the Kd in assay [14] is 3 nM; with mCTLA-4-Fc (R&D Systems) [12] it was 15.3 nM; in assay [13], 3.9 nM. Moreover, the half-inhibitory concentration (IC50) stood at 15.5 nM in assay [15] and 2.5 nM in assay [16]. Besides, the results for the off-rate (koff) (with mCTLA-4-Fc (R&D Systems) [12]; in assay [13]) were 0.000416 s⁻¹ and 0.000108 s⁻¹, respectively. The on-rate constant (kon) with mCTLA-4-Fc (R&D Systems) [12] stood at 27200 M⁻¹ s⁻¹; in assay [13] it was 27700 M⁻¹ s⁻¹.
